Reference: paper PMC2935870

Biological target: pGBKT7-53
Assay: two-hybrid

## pGADT7-T (domain or fragment)
  α-galactosidase activity: 22
